Assay results taken from patent US20120195913A1 (Novartis, published 2012).

Tests used:
BAFFR:Fc fusion protein = target: T1, BAFFR:Fc fusion protein (human, UniProt Q96RJ3 1-78, biotinylated in the competition ELISA); assay: BLyS/BAFFR:Fc competition ELISA; antibody titrated, BLyS coated
T1 construct: Bought reagent; also called human BAFFR:Fc; bio-BAFFR:Fc; not shown: Fc part of the bought fusion protein (Alexis / Axxora)
T1 sequence: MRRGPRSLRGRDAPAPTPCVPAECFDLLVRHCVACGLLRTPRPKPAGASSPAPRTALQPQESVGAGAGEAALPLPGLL
Experimental: 96-well MaxiSorp plates are coated over night at 4° C. with human soluble BLyS. After coating, the wells were washed 4 times with PBS/0.05% Tween20 (PBST) and then blocked for 1 h at 37° C. with PBST containing 1% bovine serum albumin followed by 4 washing steps with PBST. Biotinylated human BAFFR:Fc fusion protein (Axxora) at 20 ng/ml was added and captured for 1 h at 37° C. together with increasing concentrations of anti-BAFFR antibodies. After another washing round, ExtrAvidin-Alkaline Phosphatase (Sigma) was added to the wells and incubated for 30 minutes at 37° C. The bound phosphatase was detected by adding a solution containing p-nitrophenyl phosphate in diethanolamin (Sigma). The color reaction was stopped after ca. 20 minutes with an equal volume of 2N sodium hydroxide and the absorbance was measured at 405 nm on a plate reader (SpectraMax 190, Molecular Devices).

[1] = target: T2, human BAFF receptor (BAFFR) (human, UniProt Q96RJ3 1-184); assay: cell-based or functional assay
T2 sequence: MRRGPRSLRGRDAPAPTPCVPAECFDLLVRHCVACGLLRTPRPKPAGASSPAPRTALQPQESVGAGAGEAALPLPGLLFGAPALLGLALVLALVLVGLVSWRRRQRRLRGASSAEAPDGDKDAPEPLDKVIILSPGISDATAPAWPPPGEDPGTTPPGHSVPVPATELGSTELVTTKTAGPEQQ

[2] = target: T2, human BAFF receptor (BAFFR); assay: competition FACS on Raji cells; Fab titrated, competitor biotinylated hsBLyS
Experimental: The BAFFR-BLyS binding assay is performed using Raji cells expressing endogenous BAFFR. The BAFFR specific Fabs are used in final dilutions ranging from 40 to 0.001 nM. The diluted Fabs are incubated in 96-well plates with 5×10⁴ Raji cells per well for 1 h at 4° C. on a shaker. Then biotinylated hsBLyS is added in a final concentration of 25 ng/ml and the cells were incubated for 30 min at 4° C. on a shaker. The cells are washed twice with FACS buffer and then resuspended in phycoerythrin-conjugated Streptavidin (Dianova) which has been diluted 1:200 in FACS buffer. The staining is performed for one hour at 4° C. on a shaker. Finally the cells are washed twice with FAGS buffer, resuspended in FACS buffer and BLyS binding to cell surface BAFFR is detected via fluorescence cytometry in the FACSArray instrument (Becton Dickinson).
The IC50 values of the antibodies of the invention in a human Fab format are determined in a BAFFR-BLyS binding inhibition assay by Fab titration on Raji cells (FACS).

[3] = target: T3, recombinant BCMA Fc-fusion protein (UniProt Q02223 1-54, limits assumed); assay: ELISA titration on Fc-captured antigen
T3 construct: not shown: Fc part
T3 sequence (looked up): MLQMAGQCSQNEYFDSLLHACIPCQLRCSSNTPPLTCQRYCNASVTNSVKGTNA
Experimental: (§1) 384-well MaxiSorp plates are coated over night at 4° C. with a goat anti-human IgG, Fc γ fragment specific capture antibody. After coating the wells were washed twice with PBS/0.05% Tween20 (PBST) and then blocked for 1 h at RT with PBST containing 5% milk powder followed by two washing steps with PBST. Recombinant BCMA and TACI Fc-fusion proteins are added and captured for 1 h at RT. Then the purified and diluted BAFFR specific Fabs are added and the plates are incubated for 1 h at RT. To detect the Fabs, an alkaline phosphatase (AP)-conjugated goat anti-human IgG, Fab specific is added and the plates are incubated for 1 h at RT. Following each incubation step the wells are washed five times with PBST. For the detection of the AP-conjugates, AttoPhos (Roche) is used according to the manufacturer's instructions. Fluorescence is measured using a TECAN Spectrafluor plate reader.
(§2) In ELISA the Fabs are titrated from 400 nM down to 0.005 nM on […] captured to a Maxisorp plate via an anti-human Fc antibody. Only MOR07342 and MOR07346 show some cross-reactivity to BCMA at high Fab concentrations >100 nM. In contrast MOR06654, MOR07347, MOR07348, MOR07349 show no binding to BCMA above background. A 1000-fold discrimination factor is met by all Fabs.

[4] = target: T2, human BAFF receptor (BAFFR); assay: FACS titration of Fab on Raji cells (endogenous BAFFR)
Experimental: (§3) The EC₅₀ of the Fabs is determined by Fab titration in FACS on transfected HEK293 cells as well as on Raji cells expressing endogenous BAFFR.

[5] = target: T2, human BAFF receptor (BAFFR); assay: FACS titration of Fab on transfected HEK293-hBAFFR cells
Experimental: as §3

[6] = target: T3, recombinant BCMA Fc-fusion protein; assay: ELISA on Fc-captured recombinant BCMA Fc-fusion
Experimental: as §1, §2

[7] = target: T4, BCMA on transfected HEK293 cells (UniProt Q02223 1-184, limits assumed); assay: FACS on BCMA-transfected HEK293 cells
T4 construct: whole, on cells
T4 sequence (looked up): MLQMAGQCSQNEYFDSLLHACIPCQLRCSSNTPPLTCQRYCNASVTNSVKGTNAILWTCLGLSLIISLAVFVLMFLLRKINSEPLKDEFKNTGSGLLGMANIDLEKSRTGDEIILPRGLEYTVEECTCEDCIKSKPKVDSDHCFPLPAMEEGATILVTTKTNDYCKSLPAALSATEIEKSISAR
Experimental: In FACS the following Fabs are analyzed on BCMA-transfected HEK293 cells and titrated from 1 μM down to 0.005 nM: MOR06654, MOR06743, MOR07342, MOR07347, MOR7348 and MOR07349. At 330 nM only MOR07342 show an elevated binding signal which is 2-fold over background. All other tested Fabs show no signal at this concentration.

| Binder | IC50 (BAFFR:Fc fusion protein) [nM] | B-cell proliferation Agonism EC50 [1] [nM] | B-cell proliferation Inhibition IC50 [1] [nM] | IC50 [2] [nM] | discrimination factor (BAFFR over BCMA) [3] [fold] | EC50 [4] [nM] | EC50 [5] [nM] | binding result [6] | binding result [7] |
| --- | --- | --- | --- | --- | --- | --- | --- | --- | --- |
| MOR06743 Fab (Fab, V domains shown, Human Fab format; also called MOR6743) VH: QVQLQQSGPGLVKPSQTLSLTCAISGDSVSSNSAAWGWIRQSPGRGLEWLGRIYYRSKWYNSYAVSVKSRITINPDTSKNQFSLQLNSVTPEDTAVYYCARYDWVPKIGVFDSWGQGTLVTVSS VL: DIVLTQSPATLSLSPGERATLSCRASQMIDLRYLSWYQQKPGQAPRLLIYGSSSRATGVPARFSGSGSGTDFTLTISSLEPEDFAVYYCQQLYSSPMTFGQGTKVEIK | 0.1 | > 187 | 2 | – | – | – | – | – | – |
| MOR07685 Fab (Fab, V domains shown) VH: QVQLQQSGPGLVKPSQTLSLTCAISGDSVSSNSAAWGWIRQSPGRGLEWLGRIYYRSKWYNSYAVSVKSRITINPDTSKNQFSLQLNSVTPEDTAVYYCARYQWVPKIGVFDSWGQGTLVTVSS VL: DIVLTQSPATLSLSPGERATLSCRASQMIDLRYLSWYQQKPGQAPRLLIYGSSSRATGVPARFSGSGSGTDFTLTISSLEPEDFAVYYCQQLYSSPMTFGQGTKVEIK | – | – | – | 0.12 | – | – | – | – | – |
| MOR07342 Fab (Fab, V domains shown, Human Fab format) VH: QVQLQQSGPGLVKPSQTLSLTCAISGDSVSSNSAAWGWIRQSPGRGLEWLGRIYYRSKWYNNYAVSVKSRITINPDTSKNQFSLQLNSVTPEDTAVYYCARYKWVPKIGVFDSWGQGTLVTVSS VL: DIVLTQSPATLSLSPGERATLSCRASQMIDLRYLSWYQQKPGQAPRLLIYGSSSRATGVPARFSGSGSGTDFTLTISSLEPEDFAVYYCQQFYSSPLTFGQGTKVEIK | 0.14 | > 187 | 0.9 | 0.09 | ≥ 1000 | 0.06 | 0.18 | – | – |
| MOR07349 Fab (Fab, V domains shown, Human Fab format) VH: QVQLQQSGPGLVKPSQTLSLTCAISGDSVSSNSAAWGWIRQSPGRGLEWLGRIYYRSKWWNDYAVSVKSRITINPDTSKNQFSLQLNSVTPEDTAVYYCARYDWVPKIGVFDGWGQGTLVTVSS VL: DIVLTQSPATLSLSPGERATLSCRASQMIDLRYLSWYQQKPGQAPRLLIYGSSSRATGVPARFSGSGSGTDFTLTISSLEPEDFAVYYCQQFYSSPLTFGQGTKVEIK | 0.44 | > 187 | 3.5 | 0.17 | ≥ 1000 | 0.13 | 0.24 | no binding (tested: titrated from 400 nM down to 0.005 nM) | no binding (tested: 1 µM) |
| MOR07347 Fab (Fab, V domains shown, Human Fab format) VH: QVQLQQSGPGLVKPSQTLSLTCAISGDSVSSNSAAWGWIRQSPGRGLEWLGRIYYRSKWYNSYAVSVKSRITINPDTSKNQFSLQLNSVTPEDTAVYYCARYQWVPKIGVFDSWGQGTLVTVSS VL: DIVLTQSPATLSLSPGERATLSCRASQEILPEYLSWYQQKPGQAPRLLIYGSSSRATGVPARFSGSGSGTDFTLTISSLEPEDFAVYYCQQFYSSPLTFGQGTKVEIK | 0.1 | > 187 | 1.3 | 0.02 | ≥ 1000 | – | 0.08 | no binding (tested: titrated from 400 nM down to 0.005 nM) | – |
| MOR07348 Fab (Fab, V domains shown, Human Fab format; also called MOR7348; MOR007348) VH: QVQLQQSGPGLVKPSQTLSLTCAISGDSVSSNSAAWGWIRQSPGRGLEWLGRIYYRSKWYNSYAVSVKSRITINPDTSKNQFSLQLNSVTPEDTAVYYCARYDWVPKIGVFDLWGQGTLVTVSS VL: DIVLTQSPATLSLSPGERATLSCRASQWIEAGYLSWYQQKPGQAPRLLIYGSSSRATGVPARFSGSGSGTDFTLTISSLEPEDFAVYYCQQLYSSPMTFGQGTKVEIK | 0.96 | > 187 | 2.9 | 0.2 | ≥ 1000 | 0.12 | 0.24 | no binding (tested: titrated from 400 nM down to 0.005 nM) | no binding (tested: 1 µM) |
